Measurements: article PMC8595650, “Structure of the bacterial flagellar hook cap provides insights into a hook assembly mechanism” (Communications Biology, 2021)
Values joined by “and” are separate entries in the source; they are usually repeats but may differ in a detail not shown here. Identical values can stand only once.

Molecular target: the molecule itself
Assay: cross-linking; purified FlgD with EDC and Sulfo-NHS (molar ratio 1 : 2000) or DTSSP (1 : 50), products on SDS-PAGE

B1: S. enterica FlgD (flagellar hook cap protein, 232 amino acid residues) (natural protein)
chain: MSIAVNMNDPTNTGVKTTTGSGSMTGSNAADLQSSFLTLLVAQLKNQDPTNPLQNNELTTQLAQISTVSGIEKLNTTLGAISGQIDNSQSLQATTLIGHGVMVPGTTILAGKGAEEGAVTSTTPFGVELQQPADKVTATITDKDGRVVRTLEIGELRAGVHTFTWDGKQTDGTTVPNGSYNIAITASNGGTQLVAQPLQFALVQGVTKGSNGNLLDLGTYGTTTLDEVRQII
notes: Separates on gel filtration into a pentamer and a monomer fraction; A seleno-methionine form (E. coli B834(DE3)) was used for phasing only; also called full-length FlgD; source: E. coli BL21(DE3)pLysS, purified (Q-Sepharose, Butyl-Sepharose, Superdex 200)
- stoichiometry N: 5 and 10
